Data on five molecules can be found in paper PMC2212970.

Like-named read-outs stand apart in the source and are kept apart here.

Holding throughout (experiment): EMSA
Series [1] has as its target T1, SLPI (secretory leucoprotease inhibitor) (UniProt P03973 26-132).
A further series addresses NF-kB p65 (UniProt Q04206 1-551).
Series [2] addresses T1, SLPI (secretory leucoprotease inhibitor). The source holds these as a separate data set.

T1 sequence (P03973 26-132): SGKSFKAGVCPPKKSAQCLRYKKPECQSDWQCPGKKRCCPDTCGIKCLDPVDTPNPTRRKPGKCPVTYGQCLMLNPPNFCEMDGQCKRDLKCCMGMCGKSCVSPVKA
Sequence of NF-kB p65 (Q04206 whole entry): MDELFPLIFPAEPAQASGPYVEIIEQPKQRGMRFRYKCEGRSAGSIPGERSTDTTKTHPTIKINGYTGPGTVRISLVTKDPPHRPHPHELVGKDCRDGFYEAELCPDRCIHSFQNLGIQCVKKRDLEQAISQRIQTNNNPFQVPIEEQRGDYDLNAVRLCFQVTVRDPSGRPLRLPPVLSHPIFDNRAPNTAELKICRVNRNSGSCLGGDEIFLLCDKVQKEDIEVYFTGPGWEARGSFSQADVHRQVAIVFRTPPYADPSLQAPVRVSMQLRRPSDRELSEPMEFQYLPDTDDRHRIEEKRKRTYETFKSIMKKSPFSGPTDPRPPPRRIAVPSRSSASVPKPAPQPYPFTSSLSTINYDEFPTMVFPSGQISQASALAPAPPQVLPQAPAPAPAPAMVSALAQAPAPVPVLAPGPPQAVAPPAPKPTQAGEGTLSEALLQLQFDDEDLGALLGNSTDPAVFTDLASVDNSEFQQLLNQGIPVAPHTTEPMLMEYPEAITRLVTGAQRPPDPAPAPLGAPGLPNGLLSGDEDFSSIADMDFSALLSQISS

B1: NF-kB consensus WT (dsDNA)
DNA 1: AGTTGAGGGGACTTTCCCAGGC
DNA 2: GCCTGGGAAAGTCCCCTCAACT
Turning to B1, the binding result (in series [1]; with NF-kB p65) was “binds” each time.

B2: Sp-1 consensus (dsDNA)
DNA 1: ATTCGATCGGGCGGGGCGAG
DNA 2: CTCGCCCCGCCCGATCGAAT
B2: in series [2], the binding result was “no binding”.

B3: GATA-1 consensus (dsDNA)
DNA 1: AATTGGACCGTATCTCCC
DNA 2: GGGAGATACGGTCCAATT
As for B3, the binding result in series [2] was “no binding”.

B4: CREB consensus (dsDNA)
DNA 1: AGAGATTGCCTGACGTCAGACAGCTAG
DNA 2: CTAGCTGTCTGACGTCAGGCAATCTCT
Consider B4, for which the binding result in series [2] is on record as “no binding”.

B5: AP-1 consensus (dsDNA)
DNA 1: CGCTTGATGAGTCAGCCGGAA
DNA 2: TTCCGGCTGACTCATCAAGCG
B5: the binding result in series [2] is recorded as “binds”.
